# Assay results reported in paper PMC5735850 (The Plant journal : for cell and molecular biology, 2017).
# T1: AtFUT1 (Arabidopsis thaliana, UniProt Q9SWH5)
# T1 sequence (Q9SWH5 84-558 limits assumed): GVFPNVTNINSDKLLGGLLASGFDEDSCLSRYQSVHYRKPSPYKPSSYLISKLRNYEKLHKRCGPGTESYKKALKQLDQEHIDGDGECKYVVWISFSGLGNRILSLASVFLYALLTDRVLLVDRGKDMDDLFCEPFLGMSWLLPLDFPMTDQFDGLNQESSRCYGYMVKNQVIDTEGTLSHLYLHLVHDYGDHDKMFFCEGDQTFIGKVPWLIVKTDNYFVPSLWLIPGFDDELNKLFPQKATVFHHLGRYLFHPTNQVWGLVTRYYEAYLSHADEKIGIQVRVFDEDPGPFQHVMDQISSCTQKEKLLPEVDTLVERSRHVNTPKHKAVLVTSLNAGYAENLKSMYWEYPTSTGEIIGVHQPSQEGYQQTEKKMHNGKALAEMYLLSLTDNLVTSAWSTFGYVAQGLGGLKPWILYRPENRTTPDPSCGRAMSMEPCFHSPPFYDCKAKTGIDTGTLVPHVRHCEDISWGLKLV
# Substrate: C[C@@H]1O[C@H](OP(=O)(O)OP(=O)(O)OC[C@H]2O[C@@H](n3cnc4c(=O)[nH]c(N)nc43)[C@H](O)[C@@H]2O)[C@@H](O)[C@H](O)[C@@H]1O
# Test: GDP-Glo luminescent GDP release, Michaelis-Menten fit
# Type: biochemical, Arabidopsis thaliana
# Conditions: donor varied, 750 μM XXLG, 75 mM HEPES pH 6.8, 28°C
Molecule,Km,kcat
AtFUT1 (Arabidopsis thaliana; Q452A) (protein) GVFPNVTNINSDKLLGGLLASGFDEDSCLSRYQSVHYRKPSPYKPSSYLISKLRNYEKLHKRCGPGTESYKKALKQLDQEHIDGDGECKYVVWISFSGLGNRILSLASVFLYALLTDRVLLVDRGKDMDDLFCEPFLGMSWLLPLDFPMTDQFDGLNQESSRCYGYMVKNQVIDTEGTLSHLYLHLVHDYGDHDKMFFCEGDQTFIGKVPWLIVKTDNYFVPSLWLIPGFDDELNKLFPQKATVFHHLGRYLFHPTNQVWGLVTRYYEAYLSHADEKIGIQVRVFDEDPGPFQHVMDQISSCTQKEKLLPEVDTLVERSRHVNTPKHKAVLVTSLNAGYAENLKSMYWEYPTSTGEIIGVHQPSQEGYAQTEKKMHNGKALAEMYLLSLTDNLVTSAWSTFGYVAQGLGGLKPWILYRPENRTTPDPSCGRAMSMEPCFHSPPFYDCKAKTGIDTGTLVPHVRHCEDISWGLKLV,61.77 (±10.5) μM,0.00533 ± 0.000283 s⁻¹
AtFUT1 (Arabidopsis thaliana; H523A) (protein) GVFPNVTNINSDKLLGGLLASGFDEDSCLSRYQSVHYRKPSPYKPSSYLISKLRNYEKLHKRCGPGTESYKKALKQLDQEHIDGDGECKYVVWISFSGLGNRILSLASVFLYALLTDRVLLVDRGKDMDDLFCEPFLGMSWLLPLDFPMTDQFDGLNQESSRCYGYMVKNQVIDTEGTLSHLYLHLVHDYGDHDKMFFCEGDQTFIGKVPWLIVKTDNYFVPSLWLIPGFDDELNKLFPQKATVFHHLGRYLFHPTNQVWGLVTRYYEAYLSHADEKIGIQVRVFDEDPGPFQHVMDQISSCTQKEKLLPEVDTLVERSRHVNTPKHKAVLVTSLNAGYAENLKSMYWEYPTSTGEIIGVHQPSQEGYQQTEKKMHNGKALAEMYLLSLTDNLVTSAWSTFGYVAQGLGGLKPWILYRPENRTTPDPSCGRAMSMEPCFASPPFYDCKAKTGIDTGTLVPHVRHCEDISWGLKLV,84.28 (±18.3) μM,0.00123 ± 8.33e-05 s⁻¹
AtFUT1 (Arabidopsis thaliana; Y486F) (protein) GVFPNVTNINSDKLLGGLLASGFDEDSCLSRYQSVHYRKPSPYKPSSYLISKLRNYEKLHKRCGPGTESYKKALKQLDQEHIDGDGECKYVVWISFSGLGNRILSLASVFLYALLTDRVLLVDRGKDMDDLFCEPFLGMSWLLPLDFPMTDQFDGLNQESSRCYGYMVKNQVIDTEGTLSHLYLHLVHDYGDHDKMFFCEGDQTFIGKVPWLIVKTDNYFVPSLWLIPGFDDELNKLFPQKATVFHHLGRYLFHPTNQVWGLVTRYYEAYLSHADEKIGIQVRVFDEDPGPFQHVMDQISSCTQKEKLLPEVDTLVERSRHVNTPKHKAVLVTSLNAGYAENLKSMYWEYPTSTGEIIGVHQPSQEGYQQTEKKMHNGKALAEMYLLSLTDNLVTSAWSTFGFVAQGLGGLKPWILYRPENRTTPDPSCGRAMSMEPCFHSPPFYDCKAKTGIDTGTLVPHVRHCEDISWGLKLV,60.44 (±12.3) μM,0.0016 ± 0.0001 s⁻¹
AtFUT1 (Arabidopsis thaliana; D300A) (protein) GVFPNVTNINSDKLLGGLLASGFDEDSCLSRYQSVHYRKPSPYKPSSYLISKLRNYEKLHKRCGPGTESYKKALKQLDQEHIDGDGECKYVVWISFSGLGNRILSLASVFLYALLTDRVLLVDRGKDMDDLFCEPFLGMSWLLPLDFPMTDQFDGLNQESSRCYGYMVKNQVIDTEGTLSHLYLHLVHDYGDHDKMFFCEGDQTFIGKVPWLIVKTANYFVPSLWLIPGFDDELNKLFPQKATVFHHLGRYLFHPTNQVWGLVTRYYEAYLSHADEKIGIQVRVFDEDPGPFQHVMDQISSCTQKEKLLPEVDTLVERSRHVNTPKHKAVLVTSLNAGYAENLKSMYWEYPTSTGEIIGVHQPSQEGYQQTEKKMHNGKALAEMYLLSLTDNLVTSAWSTFGYVAQGLGGLKPWILYRPENRTTPDPSCGRAMSMEPCFHSPPFYDCKAKTGIDTGTLVPHVRHCEDISWGLKLV,40.1 (±7.5) μM,0.00532 ± 0.000267 s⁻¹
AtFUT1 (Arabidopsis thaliana; D550A) (protein) GVFPNVTNINSDKLLGGLLASGFDEDSCLSRYQSVHYRKPSPYKPSSYLISKLRNYEKLHKRCGPGTESYKKALKQLDQEHIDGDGECKYVVWISFSGLGNRILSLASVFLYALLTDRVLLVDRGKDMDDLFCEPFLGMSWLLPLDFPMTDQFDGLNQESSRCYGYMVKNQVIDTEGTLSHLYLHLVHDYGDHDKMFFCEGDQTFIGKVPWLIVKTDNYFVPSLWLIPGFDDELNKLFPQKATVFHHLGRYLFHPTNQVWGLVTRYYEAYLSHADEKIGIQVRVFDEDPGPFQHVMDQISSCTQKEKLLPEVDTLVERSRHVNTPKHKAVLVTSLNAGYAENLKSMYWEYPTSTGEIIGVHQPSQEGYQQTEKKMHNGKALAEMYLLSLTDNLVTSAWSTFGYVAQGLGGLKPWILYRPENRTTPDPSCGRAMSMEPCFHSPPFYDCKAKTGIDTGTLVPHVRHCEAISWGLKLV,55.33 (±6.7) μM,0.00343 ± 0.000167 s⁻¹
AtFUT1 (Arabidopsis thaliana) (protein) GVFPNVTNINSDKLLGGLLASGFDEDSCLSRYQSVHYRKPSPYKPSSYLISKLRNYEKLHKRCGPGTESYKKALKQLDQEHIDGDGECKYVVWISFSGLGNRILSLASVFLYALLTDRVLLVDRGKDMDDLFCEPFLGMSWLLPLDFPMTDQFDGLNQESSRCYGYMVKNQVIDTEGTLSHLYLHLVHDYGDHDKMFFCEGDQTFIGKVPWLIVKTDNYFVPSLWLIPGFDDELNKLFPQKATVFHHLGRYLFHPTNQVWGLVTRYYEAYLSHADEKIGIQVRVFDEDPGPFQHVMDQISSCTQKEKLLPEVDTLVERSRHVNTPKHKAVLVTSLNAGYAENLKSMYWEYPTSTGEIIGVHQPSQEGYQQTEKKMHNGKALAEMYLLSLTDNLVTSAWSTFGYVAQGLGGLKPWILYRPENRTTPDPSCGRAMSMEPCFHSPPFYDCKAKTGIDTGTLVPHVRHCEDISWGLKLV,25.32 (±4.2) μM,0.0633 ± 0.000833 s⁻¹

# Target: T1, AtFUT1
# Test: real-time 1H NMR of fucosylation
# Type: biochemical
# Conditions: 0.4 mM XLLG, 0.4 mM GDP-Fuc, 4.7 μM enzyme, pH 6.8 in D2O, 25°C
row,Molecule,real-time 1H NMR of fucosylation
1,OC[C@H]1O[C@@H](O[C@H]2[C@@H](OC[C@H]3O[C@@H](O[C@H]4[C@H](O)[C@@H](O)[C@H](O[C@H]5[C@H](O)[C@@H](O)C(O)O[C@@H]5CO)O[C@@H]4CO[C@H]4OC[C@@H](O)[C@H](O)[C@H]4O[C@@H]4O[C@H](CO)[C@H](O)[C@H](O)[C@H]4O)[C@H](O)[C@@H](O)[C@@H]3O[C@@H]3O[C@H](CO[C@H]4OC[C@@H](O)[C@H](O)[C@H]4O)[C@@H](O)[C@H](O)[C@H]3O)OC[C@@H](O)[C@@H]2O)[C@H](O)[C@@H](O)[C@H]1O (stereo partly shown) [XLLG],"The xyloglucan oligosaccharide XLLG (Figure 1a), composed of nine glycosyl residues"
